This is an account of results in a protein production outcome set (Wang et al. 2014).

This data set in a line: label from the status in PepcDB records.

Regarding “MKFDESKTLLPVRKPVNGNRKTAGYKLWVLIAVLLLAFGSMLTGSVSLKGIGLFHSADGVNAFSFGDDLDVLEIEEREKVVRQMWDVYGRSGGVKVPRFWREAFEAAYEFLISDSAAVRNAAVSDIAKLSLVRFVKSESTSAQPNLH”, the protein production entry is “failed”.
On to “MKFFGFYRPIALIAGITVSASILTSVATAAESPTSFQAITPAFSSSSAPEADAEANTSEATADLLYVAENQLLIKLSNAVVEDVNGEILMKDNKGTLLENLTAELQAQPGFSIEKVDSHTALLTMNPDEVPDLQDWRCGVGALSGGVAGVVATGLALAALGVATGGTGFAVLAAGGLAGYGTGAVANC”, for which the protein production result was “failed”.
The value for “MKFFSVFILAILSILCMPLIASTTNYDETLTKIETLQHSDLPAAINLIKTIESEFGAMSRLQQGRVLLFKGAASIYSGQYQTAIELLGQAEALLKDSEMLFSAYSYEATAYIALRHFNDAFIAMGKSLGLIERIEDTNLKRASYLRLASLYSAMGISEEVATYATKALALASESDVKDICGARLYLSVHQLEIASYAQAFDEFKSTRSYCESSGYPLIANIALKGMGESSLRLNEPQLAISYLLDSLKGYESFNFELEINSVHELLSEAYLLLQDSTKAELHAQYVMNLVDDSSNTELKHGASGVLAKIYAQKQQFEQAYEYSRKEQHYNQLIFDESRMKTLAYQAAKFNADEQAREINLLNKERELYIAQQMVKEREYTNMLMFITILVGGLFFLAILLVVGNLQKRRFMRMAKMDALTGVLNRGAGQDLGENMFVQAAARGGDYCVILFDLDHFKRINDSYGHGTGDWALKKVVEVLKPHIRNGDVFARIGGEEFALFLPYANEAKGLDVAEQCRSRIEAIDTHLSGHKFTITASFGVSGMTKDDLSLDPLLHRADMALYAAKSNGRNCVSCYQDALMCDKRVTNLTSELARQP” was “failed”; that for “MKFHVIDRENWNREQYFEHYLELKCTFSMTVNVDITLLIKKVHQKGIKFYPTFIYIISRIINKHKEFRTCFNDEGVLGYWEEMIPSYTIFHKDDKSFSSIWTDYSSDFRIFYKNYEEDMRCYASVHGLLTKENIPPNIFPISGIPWTSFTGFNLNINNDGDFLLPIITCGKYFNEENKIMLPVSLQVHHSVCDGYHVSRFIEDLQELSNSCNEWLK” was “failed”.
The value for “MKFQLYIQPKLDILQGNIVEYEILLRDDSEVPRFPLSELEAVLADEELYLTFCEWFSDAFFDVLKKYPNDRFAINIAPQQLFYMETLHMLDKLRSESHRITIEMTEDIFDVPAHKRHLNADDKDAFILNKIKIIHGLGYHVAVDDVGCGLNSLERVLSYLPYIIELKFSLIHFNNIDLEDLLLFIKAWANFAHKNNLDFVVEGIETKETMAILESHGVSIFQGYLVNKPFPV” was “failed”; that for “MKFSVIIPVYNASKFIDYCVESVLSQSYSDIEVILINDGSTDKSGEICEGFARKDNRVKVYHQENQGAAVARNHGIRKATGDYLLFPDSDDYYASSLGFEEINNQLEETKADVLIHDSFVERGNGTPDDLHSSLLREEVLKLEKIEFIEYLIKKDKLTRSAWTKVISRSFLSKNNILFPTVRQTEDTGFTAELVRLGNSFDWYEKQFYAYVKHDESVTAKRLPESIIHDSFSVIKTAVINGELIKDSRYREAYYSYLAYPYVVLIGQTKEAINRGVIKENTILNDLKQYSFLMKYNLNPKLKVIKHLYKLFGYLMIVFLLSVMMELTYRKQGV” was “failed”.
The value for “MKGKEIMEIKRILVSRTDKIGDLVLSIPSFFMLKKMYPNAELVVIVRKYNVDIVKNLPYIDRIVIIDEYSKAELLEKIAYFKADVFIALYNDSYIASLARASKAKIKIGPISKLSSFFTYNKGVLQKRSLSLKNEGQYNLDLVTKLDRKRFAILYELNTKLILTDENKKVADVYFKENSIEGKTLVVNPFIGGSAKNITDEQYISILKKIKEKMPDLNIIITSYTTDEERTEKLCKDIGKDKIFAFSNGASILNTASIIDRADVYFGASTGPTHIAGALGKKIVAIYPHKKTQSPTRWGVLGNSNVRYIIPDENNPNEDYKNPYFDNFTKDMEDKVVKAILEALK” was “failed”; that for “MKGKLQNIHPLGMTIIIGTLFARFATSMSIPFLAIYLTTVKGVSAGMTGAIIGTSALVGVFASFIGGNLSDRFGRKMIMLWSMIVWMFVFIGFSLADHVLSFFLLNALNGLCRSFFEPTSRALLSDLTKPEYRLLVYNLRYGAINVGVAIGPIVGLQIGSAKSTIPFLVAAGVYILYTAILAFQFKKYPMEKKKVSTEKPVTMLNAMRILRKDIVFLVALVGIILSNCGFSHLTTTVSQYFANAHIFQDGVKVFSYMLALNAIVVVVIQYPVIQICKKYTPLVSIMVGTLFVSGGLFGFGIIESTLGAAICTIIFTIGEVLMFSMTDVFIDDIAVAHLKGTYFGAMGFSGIGAVIGPWFGGVLLDYYGYQNGFVVFSALAIFSTVAFPVLLVTKSLLKKRYDGNSNIELHAK” was “failed”; that for “MKGKVVSYLAAKKYGFIQGDDGESYFLHFSELLDKKDEGKLVKGSMVHFDPTPTPKGLAAKAISLPEVFIRERLVDFFTTRDNRPKNGTVIASFPIATRFFKDPSEGRRHLEQLAKHCGCNAVLNVSFEKDTFSKGNYRYTVHAFKGELALVTEKVPADAQELVVASAELLEKRKADVEQAVKQMSEAENLARQKQLSGCLGTLAIITLIPLALVLTAIAVFPA” was “failed”.
In the case of “MKGRIELGDVTPHNIKQLKRLNQVIFPVSYNDKFYKDVLEVGELAKLAYFNDIAVGAVCCRVDHSQNQKRLYIMTLGCLAPYRRLGIGTKMLNHVLNICEKDGTFDNIYLHVQISNESAIDFYQKFGFEIIETKKNYYKRIEPADAHVLQKSLRSPCAPPAGELQKAD”, the protein production entry is listed as “failed”.
The value for “MKGRLLQRLRQLSISNSLRGAFLTGALLTLIVSMVSLYSWHEQSSQVRYSLDEYFPRIHSAFLIEGNLNLAVDQLNEFLLAPNTTVRLQLRTQIIQHLDKIERLSQGLQLAERRQLAVILQDSRTLLAELDNALYNMFLVREKVSELSARLTGSSDDFTTELNSLVQDFTWQQGTLLDQIEANQGDAAQYLQRSREVQNEQQQVYTLAEIENQIVDDLRDRLNELKSGNNDGMLVETHIRYLENLKKTADENIRALDDWPSTITLRQTIDELLEIGMVKNKMPDTMRDYVAAQKALLDASRAREATLGRFRTLLEAQLGSSHQQMQTFNQRLEQIVRVSGGLILVATLLALLLAWGLNHYFIRSRLVKRFTALNQAVVQIGLGRTDSTIPVYGRDELGRIARLLRHTLGQLNMQRRQLEQEVAERKEIEADLRAMQDELIQTAKLAVVGQTMTTLAHEINQPLNALSMYLFTAGRAIEQGQSGQARNTLRKAEGLINRIDAIIRSLRQFYRRAELETPLYPVDARQTFVAAWELLAMRHQSRQGALSLPTDTVWVSGDEVRIQQVLVNVLANALDACSHDAVIAVTWQTQGEALEVYIADNGPGWPVALLPSLLKPFTTSKAVGLGIGLSISVSLMAQMKGDLRLASTLTRNACVVLQFSVTDVDDVE” was “failed”; that for “MKGYGEMAKNNPTRITAEPGKQEIIITREFDAPRELVFKAFTDPDLYTQWIGPRGFTTALKIFEPKNGGSWQYIQKDPEGNEYAFHGVNHDVTEPERIISTFEFEGLPEKGHVILDTARFEALPGDRTKLTSHSVFQTIEDRDGMLQSGMEEGINDSYERLDELLEKMKKLEHHHHHH” was “not failed”; that for “MKHAFDRFVQYLQKNYFSYWIVLGIDTFIALICTWVSFIGIHYITETSKEITSLFHILAISVISSILGSFLFHTYRNTIRFSQLKELWRLAGSALIKAVCIAMAIWLFLPQTGLHNSQKIVFVLFDGMLTFIAMVGFRIQLILVYELLLNMLNKKNMHILIYGIDDKSVALKVRLMNSSHYKVVGFCIYGTGDSIRRVADLPVYSFKDEECFNKLIHKKCIGGILFARYENTREEEDRLLQYCKRSGLKTLIAPSISEADENGSFHQWVRPIKIEDLLGRSEIHINMEEVMTEFCGKVVLVTGAAGSIGSELCRQLAQMNIKKLIMFDSAESPLHNVRLEFEKNYPDLDFVPVIGDVRVKERLRMVFETYQPQIIFHAAAYKHVPLMEENPCEAVLVNVVGSRQVADMAVEYGAEKMIMVSTDKAVNPTNVMGCSKRLAEIYVQSLGCAIREGKVKGHTKFITTRFGNVLGSNGSVIPRFKEQIENGGPVTVTHPDIIRFFMTIPEACRLVMEAATMGEGNEIFVFEMGKAVKIVDLATRMIELAGYRPGEDIEIEFTGLRPGEKLYEEVLSDKENTIPTENKKIMIAKVRHYEYTDILDTYTEFEKLSRSVQIMDTVKLMKRVVPEFKSKNSPRFEVLDR” was “failed”.
For “MKHASHKATTVSRQKFSLAKALFASGKGSHSVRAVRAVQSAGSDAVVLGLDPAIAEKINEIAPQTRRSIREAARAAERRSHILASASLAALVGTAAGALAFSNNEDATNSFVADPATTTTQIKRISDVTAASRSEARTDLSSSSVTAQSTNEGGWGLSNSDSTLDAKLMNRNNANNPVVSALVDADGDAVPAGFNPNHAVGTNSNNYPWGQCTWYAYQRRAELGLPSSGNFGNGGAWAASASALGYWVDNTPRHVGDAVVFAPGQADADGAYGHVAVLEKINADGSIEISESNAKGLGVISTRTFSAAEAGKFQYVHY”, the protein production entry is recorded as “failed”.
As to “MKHDKKNSKIIPFPNVKERLVHKGMGALKEKNYHEALRLFSEAKRYNDEESDIYLGMAICLLEIGELEEAKGICEKMLKEGHGHYFTVLQVYMTILIQLRQYEKVKETIEAVLEENKLPPESAEQFYKLLDFSRKMTEDPGPEDITEDLPETEEVDQERLLNDTEEQVKLLHGLKDRNLTSYIGLLKTILQNPSAHPVVKTMILQLLAESDHEKPTLVAKFGDSMTINPTETVKPDDMPILKHVLSVLDDTLGNENPTLYQAVEELWRRHIYVLYPFQPKYSNRELWAAALHKVGYEMHGIDIDKEELHILYEFNDRQLDEACALIKDIEEISYL”, the protein production entry is reported as “failed”.
“MKHIFRFKNYFFHSKNNQLKRLLLVAFLLTGLWLTPQQGRVWGQEQPFVVKKIDLSQYGAAASIAQDPESKQLAIGFYNCNLIFLDANLNQDQKNNLFLKNCKRFFRARYGEFGSIPFLISSIYTGSSVLHNSQENFDIPLHKAAVTDSLILQDYLLSSSDDGSVTISRLISLSPPEVNTFKLYQSIGVARNLAFTHTSNPEVGKVAVSYDTGEIAIFNIDHDTARNPVEPSTFKTINSRINTFKFTPDGAKLLIGYFTGELVELDLATGAHKTLAKVNSWLNALDINSENLVAIADDQGFVKIISLTTGKIVEEHKISTTGINAVIFTDDQTVVAADATGMIYQGKLAGSN”: the protein production entry is recorded as “failed”.
The value for “MKHKHGWASVVCCFVLFIVVCLSLTMHVQGAFRAAGHPEIGLLFFTLPGAVASFCSHRREVIRPLIGAMLAAPFCLVLMRVVFMPTRSFWQELAWLFSAVFWCALGALCYLFISSLFSHRRKKRR” was “failed”; that for “MKHLVTTALAYTNGPLHLGHARSTYIPADIYTRYLRLKGEEVIHVGGTDNHGVPITLTAEREGVKPIDIVDRYHNAIKADLDSLNVSFDTFGRTHSDIHIETAQEFYSKLKENGYIYEKEIEQFYCEKCDMYLADRYVEGICPFCEGEARGDHCEVCGRHLEPTELVNPYCIHCNSKPEIKRTTHYFFKLSAMQDVLKEYIENSPEMPEHVKNMALRWIEELHDWDVSRNIKWGVPIPGCDDQVMYVWIEAPIGYVSFTKQLGDLWKDYWLENTGDSKISHFIGKDITVHHAVFWPGILKGIGGYKMPNAVVSGGYLTLENKKMSTSKNWVVWVKDFIENFSSDYLRYFFMINAPLNRDTDFSWDDFQKRINTELIDIIGNFTHRTLVFTERKFGSTPVVDLNQLKDEDKKLISKCEDTLNRVDSLIREYNFKDALMEIIHLAKEGNGYFQGMAPWAIKDEERLKEVMYTCSVALKYIVYLLSSFMPEKTALLLEYMNEELDLEVRGNPLKKPKVIFTKVSDEDISRMKENLMKATKKAETKSDEKSKKVKSGEKMDIIDIDYFGNIDLRVGQILEVEEVPRSKKLYKITADLGDEKRQIVSGLKGAYEAEELVGKKVIIICNLKPAKLCGVESQGMLLAAEDDSIVSLLALDRDLPVGSKIH” was “failed”.
